According to patent US20240254204A1 (published 2024):
Numbering of substitutions follows the chain as printed.

B1: F5 (antibody, V domains shown)
VH: QVQLQESGPGLVKPSETLSLTCTVSGGSIIGYYWSWIRQPPGKGLEWIGYIYFSANTNYNPSLKSRVTMSVDMSKKQFSLKLRSVTAADTAVYYCARGGGYLETGPLDFWGQGILVTVSS
VL: DIVMTQSPLSLPVTPGEPASISCRSSQSLMQLNGYNYLAWYLQRPGQSPQLLIYLGSTRASGVPDRFSGSGSGTDFTLKITRVEAEDVGVYYCMQGLQIPGTFGQGTRLEIK
B2: Antibody 20 (SS6V20-F5) (antibody, V domains shown)
VH: B1 VH
VL: B1 VL
B3: F1 (antibody, V domains shown)
VH: QVQLQESGPGLVKPSETLSLTCSVSGVSILGSYWGWIRQPPGTGLQWIGYIYFSENTNYNPSLQSRVTMSLDTSKNLLSLKLSSVTAADTAVYYCARGGGYLETGPFDSWGQGTLVTVSS
VL: B1 VL with S28G, M30V, L32S, R44K, T58N, T81S, I99T
B4: Antibody 13 (SS6V13-F1) (antibody, V domains shown)
VH: B3 VH
VL: B1 VL with S28G, M30V, L32S, R44K, T58N, T81S, I99T
B5: Antibody 11 (SS6V11-E7) (antibody, V domains shown)
VH: QVQLQESGPGLVKPSETLSLTCTVSGGFIGPHYWSWVRQPPGKGLEWIGYIYISGSTNYNPSLKSRLTISVDMSKSQFSLTLSSATAADTAVYYCARGGGYLETGPFEYWGQGTLVTVSS
VL: B1 VL with M30L, L32N, R44K, G56S, T81S, G96S
B6: E7 (antibody, V domains shown)
VH: B5 VH
VL: B1 VL with M30L, L32N, R44K, G56S, T81S, G96S

Experiments:
SARS-CoV-2 Lambda = SARS-CoV-2 Lambda (SARS-CoV-2 Lambda)
Bat CoV RsSHC014 = Bat CoV RsSHC014 (SC1r-CoV RsSHC014)
Bat CoV WIV-1 = Bat CoV WIV-1 (SC1r-CoV WIV-1)
Bat CoV Rs2018B = Bat CoV Rs2018B (SC1r-CoV Rs2018B)
[1] = biological target: SARS-COV-2 Omicron BA.1 RBD (SARS-CoV-2 Omicron BA.1)
SC2r-COV RaTG13 RBD = SC2r-COV RaTG13 RBD (SC2r-CoV RaTG13 (bat))
[2] = biological target: SARS-COV-2 Omicron BA.2 RBD (SARS-CoV-2 Omicron BA.2)
SARS-COV-2 B.1.351 RBD = SARS-COV-2 B.1.351 RBD (SARS-CoV-2 B.1.351 (Beta))

| Binder | IC50 (Pangolin CoV GX-) [µg/mL] | IC50 (SARS-CoV-2 Lambda) [µg/mL] | IC50 (SARS-CoV-1) [µg/mL] | IC50 (Bat CoV RsSHC014) [µg/mL] | IC50 (SARS-CoV-2 Delta) [µg/mL] | IC50 (Pangolin CoV GD-1) [µg/mL] | IC50 (Bat CoV WIV-1) [µg/mL] | IC50 (Bat CoV LYRa11) [µg/mL] | IC50 (Bat CoV Rs2018B) [µg/mL] | IC50 (SARS-CoV-2 Delta Plus) [µg/mL] | IC50 [2] [µg/mL] | IC50 (SARS-COV-2 B.1.351 RBD) [µg/mL] | further results |
| --- | --- | --- | --- | --- | --- | --- | --- | --- | --- | --- | --- | --- | --- |
| B1 | 0.025 | 0.014 | 0.019 | 0.012 | 0.034 | 0.019 | 0.012 | 0.01 | 0.015 | 0.03 |  |  | IC50 (SARS-CoV-2): 0.03 µg/mL; IC50 (Bat CoV BANAL-236): 0.033 µg/mL; IC50 (Bat CoV BANAL-52): 0.027 µg/mL; IC50 (SARS-CoV-2 Mu): 0.024 µg/mL |
| B2 |  |  |  |  |  |  |  |  |  |  | 0.246 |  | IC50 [1]: 0.072 µg/mL; IC50 (SC2r-COV RaTG13 RBD): 0.015 µg/mL |
| B3 |  |  | 0.073 |  | 0.12 |  | 0.037 | 0.031 |  | 0.112 |  |  | IC50 (SARS-CoV-2 Gamma): 0.082 µg/mL |
| B4 |  |  |  |  |  |  |  |  |  |  |  | 0.087 |  |
| B5 |  |  |  |  |  |  |  |  |  |  | 0.222 | 0.044 |  |
| B6 | 0.039 | 0.032 |  | 0.022 | 0.097 | 0.073 | 0.03 | 0.021 | 0.032 |  |  |  |  |
